Test system: K4 kissing-loop RNA reporter
Experiment: apparent KD of K4 kissing-loop reporter; higher = weaker reporter binding
Settings: Eterna round: R107
Procedure: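 RNA-MaP round R107: designed RNA switches with theophylline, tryptophan, arginine or FMN aptamers are transcribed on-chip within common flanks. They are titrated with a labelled K4 kissing-loop RNA reporter in RNA-MaP buffer (100 mM Tris pH 7.5, 80 mM KCl, 4 mM MgCl2), without ligand or with the indicated ligand. Median apparent KD per design.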

[1] = input ligand: theophylline 20 uM
[2] = input ligand: tryptophan 2.4 mM
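Also: bound reporter read as fluorescence of individual clusters on recovered sequencing chips by microscopy, with normalized cluster intensities fitted with a binding model.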

Row | Sequence | apparent KD of K4 kissing-loop reporter (input ligand: FMN 200 uM) | apparent KD of K4 kissing-loop reporter (input ligand: arginine 13.2 mM) | apparent KD of K4 kissing-loop reporter (input ligand: none) | apparent KD of K4 kissing-loop reporter [1] | apparent KD of K4 kissing-loop reporter [2]
1 | AGCAGCAAAUCCUAGUGAUGUUAGGAUAUGUAGGAUAUCGGGAUACCGAGAAGGACAGAAGGAGGAGUGAUGUUCCUCAGCUGCA [FmnAX 23 #DoubleAptamer #DoubleK4 #SwitchBubble] | 116 nM | 106 nM | 104 nM | 102 nM | 94.9 nM
2 | CACCCUGGACAAGGAUAUAUCAUGCGCCAAGGGCAGUGAUGUUGCCACAGGCUUGGGUCCAGUUCGAUAGAAGGUGUCUGGUAUU [theeternabot_sameState_KL_FMN_B_4] | 203 nM | 174 nM | 244 nM | 159 nM | 183 nM
3 | AACGUUUUGUGAAGGAGCGCGAUAAGCAGUGAUGUUGCUUACUAUCAAUUUAUAUUUUACACGCAGGUAGGUCGCACAAUACGUA [JR_SSArginiB_Sub018] | 159 nM | 135 nM | 160 nM | 148 nM | 163 nM
4 | GAGGUUUACGUAGGAUAUCGAUAAUGAGUAAAUGGAGUGAUGUUCCGAAAUUGAAUAAGAGAUGAGCGAGAAGGGCGGAUUAAGC [FMN B Same State; Euporia Solution] | 39.1 nM | 41.4 nM | 37.8 nM | 66.5 nM | 43.4 nM
5 | UGAUACCAGACUGAUACCAGCCAGUGAUGUUGGCUGAAAUCAGGGUCAAAGACCCUGUCUGGCCCUUGGCAGCAGUCUGGUAUCU [TheoBX 19 #SwitchBubble #StaticStem] | 329 nM | 251 nM | 291 nM | 332 nM | 281 nM
6 | UCCAGCAGUACUGAUACCAGACUGCAUGUAGUGAUGUUGCAUAAGGGCAUAGAUGUCUCAGUCCCUUGGCAGCAGUACUGUUGCA [Theo B SS t1] | 317 nM | 239 nM | 284 nM | 191 nM | 257 nM
7 | UUGUUUUACUGAAGGAGCGGCAAUUGAUACGUAGAUAUAGUGAUGUUAUAUAAGAUAGAGAGCCAGGUAGGUCGCAGAGGUGUUU [ExArgB.S] | 176 nM | 150 nM | 210 nM | 180 nM | 168 nM
8 | CCGAGUAGCUCCGAUACCAGCACAAUCGUUCAAUGAUCCAUGCGCAAGUGAUGUUUGCGUUGCCCUUGGCAGCGGGCAAAAGCUU [theeternabot_sameState_KL_Theo_B_2] | 61.3 nM | 90 nM | 72.4 nM | 86.5 nM | 78.6 nM
9 | GCCGUAGAUUGAAGGAGCGGCUUCAUCAAAUCUCUAGCCCACACCAGUGAUGUUGGUGUUAGCCAGGUAGGUCGCAAUCUACGGC | 421 nM | 313 nM | 450 nM | 430 nM | 411 nM
10 | CAGACCACAGAGUGAUGUUCUGUGUCCGAAGGAGCGCGCGAGAGCGCAGGUAGGUCGCGGAUACAGUUGACGUACCUUCAAGACA [Arg A Ex t3] | 193 nM | 179 nM | 205 nM | 230 nM | 219 nM
11 | UGUGUUUACCUGACUCAGUGAUGUUGAGAAGGAGCGUGCAAAUGCACAGGUAGGUCGCUCAACCUAAAUUCAGGUGAGCACUAAA | 321 nM | 261 nM | 323 nM | 234 nM | 169 nM
12 | UCUGCUGUAUAUGAUACCAGCAGUGAGAGACAGGAAGUAUAGUGAUGUUAUAUGAGAGAAUGCCCUUGGCAGCGUGUGCGGGUGG [SSTheophylB.Y] | 119 nM | 111 nM | 81.7 nM | 119 nM | 66.2 nM
13 | UCACUUAAAAGAAAUAGAAAUUCUAGAGAUACCAGCGACACUCUUCGCCCUUGGCAGCUCAAGUGGGACCCAGUGAUGUUGGGCG [Xeceteza] | 426 nM | 289 nM | 413 nM | 269 nM | 324 nM
14 | GUUAUCACGCGAAGGAGCGCGGAGCGAUAACGCAGUGAUGUUGCGUUAAACGUAAUAUAAUCGCAGGUAGGUCGCGCGUGAUACC [Arg B Ex t6] | 104 nM | 80.2 nM | 94.2 nM | 82.1 nM | 95.6 nM
15 | GGGAGUAGUGCGGCCGCCACUGAGAAAGAAGAAGAAUAUAGUGAUGUUAUAUAGGAAAUAAAGAAUAGGACCGGGCAUUAGAUUU [SSTRyptB.M] | 259 nM | 211 nM | 235 nM | 181 nM | 211 nM
16 | AGUAGUUGGGCGGCCGCCACUAGAACAGCUUUGCCAAAGGCAGAGCUCUAGAGUGAUGUUCUGGCUAGGACCGGGUCCAACUACA [#01 K4 Tryptophan B Same State] | 930 nM | 594 nM | 932 nM | 980 nM | 417 nM

Row | Sequence | apparent KD of K4 kissing-loop reporter (input ligand: FMN 200 uM) | apparent KD of K4 kissing-loop reporter (input ligand: arginine 13.2 mM) | apparent KD of K4 kissing-loop reporter (input ligand: none) | apparent KD of K4 kissing-loop reporter [1] | apparent KD of K4 kissing-loop reporter [2]
17 | CGCAGUGAUGUUGCUAUUAUUCUUGGUUAACGAGGACCGGUACGGCCGCCACUCGAUUUCUAUCUAGUCCAGUGUUUUUUUGAGU [whbob_EX_Tryp_A_t7] | 347 nM | 392 nM | 470 nM | 451 nM | 250 nM
18 | UUAGGAGUGGAAGGAUAUCCUGGUGUGGGUGAUGUUAGUGAUGUUGAAGGUGCAGUGAUGUUGCGCGGAGAAGGUCCGGUGUUGA [BDazzled - #6 - Exc. FMN B] | 344 nM | 341 nM | 367 nM | 546 nM | 319 nM
19 | AAUCUCCUAGUGAUGUUAGGUUUAAGGGAAGGAGCGAGGUAAUACUCAGGUAGGUCGCCCACAUGCAUUAAUAAAUCAAUUUAAU | 102 nM | 73.8 nM | 91 nM | 98.8 nM | 84.2 nM
20 | CCUUCUCUUGAUAGUGAUGUUAUCAAGGACAAGGAUAUCAUCUCAAUGAGAAGGUGUCCUUGAUAACAUGGAGGUCUGAAACAGA [Omei KL FMN A Exc C v3] | 148 nM | 249 nM | 287 nM | 407 nM | 385 nM
21 | AUGUCUGAUAGCAGUGAUGUUGCUUCGGAUACCAGACGCGAUCAUGUCCCUUGGCAGCUGACACGGCACGUGCUAGGUUAGAUGG [whbob_Ex_Theo_A_th74] | 123 nM | 94.5 nM | 105 nM | 112 nM | 95.9 nM
22 | AUCUUGCAUUCGGCCGCCACUAUCGUGCAGUGAUGUUGCGCGAGUGACGCGUCCCGCAGUGCAGGUAGGACCGGGAAUGAUACCC [Erlazaar] | 128 nM | 119 nM | 123 nM | 112 nM | 125 nM
23 | AAAUAGGAGUAAAUAAACAAUUUCCUUAGAGAGGAUAUUGGUAAUACAAGAAGGCUCUGUUGGGAGUGAUGUUCCCAUAACGCCU [Exclusion FMN A GF13] | 58.3 nM | 66.6 nM | 56.6 nM | 65.9 nM | 56.7 nM
24 | AAAAUAACCCAGUGAUGUUGGUAACCAGAUACCAGCGACGAAAGUCGCCCUUGGCAGCUGUGGACGUACAAAAUAAGUACGUCCU | 686 nM | 765 nM | 859 nM | 583 nM | 649 nM
25 | AACCAGCUUACUGUAAGCUGGUUGCUGGAUACCAGCUCGGAAACGAGCCCUUGGCAGCCAGAACUUGCAGUGAUGUUGCAAGUAA [Design11] | 150 nM | 178 nM | 157 nM | 120 nM | 216 nM
26 | CUCAAGUGAGGAUUUCGACAUCAAGAUGUGAAGGAUAUGUUACCAAACAGAAGGUCACGAUGUCAUCUAUGAGUGAUGUUCAGGA [theeternabot_sameState_KL_FMN_A_31] | 208 nM | 130 nM | 208 nM | 186 nM | 181 nM
27 | GCCCACAUUAGUGAUACCAGUGGGCACUCACCAGUUCAGUGAUGUUGGACGCAGUGUGGUCACCCUUGGCAGCACCGAUGCCCUU [theeternabot_sameState_KL_Theo_B_32] | 129 nM | 128 nM | 122 nM | 122 nM | 129 nM
28 | GUAUUGUGCCUGGAUACCAGACACCCGAGUGAUGUUCGGAGCAGAGUGAUGUUCUAAUAAGUCCCUUGGCAGCCGGUCGCAGUCG [Same State Theophylline B gf 4] | 810 nM | 869 nM | 914 nM | 535 nM | 886 nM
29 | AAACAUCACUGGGAGUGAUGUUCUCAGUGACGAGGACCGGUACGGCCGCCACUCGCGAGAGAUAUAAUUAAGUAAUGACUUCAUU [Excl Tryptophan A V7] | 241 nM | 205 nM | 231 nM | 246 nM | 287 nM
30 | CAUACGCAUGGAGGAUAUGAGAUUUCUCAUAUUAUUGUUUAUUCUCAGUGAUGUUGGGAUUUAAACUCAGAAGGCCAUGUGUAUG [Ex FMN B 9] | 273 nM | 124 nM | 138 nM | 137 nM | 132 nM
31 | GUACCUUGGAAACAAGGACAGAUAACCGAAGGAGCGCGUGAAAACGCAGGUAGGUCGCGGAAGCAGUGAUGUUGCAAAAGAGAGC [Same State Arginine A GF 17] | 168 nM | 188 nM | 125 nM | 228 nM | 111 nM
32 | CGAGUGAUGUUCGUUCGUAUAUUUGGGUGACAGGAUAUGCGGAAACGCAGAAGGGUCACCUUCGGGUUACCCGAAUUGGCGUUAU [Model 1] | 372 nM | 275 nM | 427 nM | 322 nM | 298 nM
